# In patent US20150104459A1:
# What was measured:
# Details in all cases: remark: other sources report otherwise
# [1] = molecular target: recombinant soluble homotrimeric HA of A/Wisconsin/67/05 (H3N2) (Influenza A virus A/Wisconsin/67/2005 (H3N2)); assay: HA microarray, BCC supernatant
# [2] = molecular target: recombinant soluble homotrimeric HA of A/Japan/305/57 (H2N2) (Influenza A virus A/Japan/305/1957 (H2N2)); assay: HA microarray, BCC supernatant
# [3] = molecular target: recombinant soluble homotrimeric HA of A/chicken/Vietnam/NCVD-016/08 (H5N1) (Influenza A virus A/chicken/Vietnam/NCVD-016/2008 (H5N1)); assay: HA microarray, BCC supernatant
# [4] = molecular target: recombinant soluble homotrimeric HA of A/Egypt/3300-NAMRU3/08 (H5N1) (Influenza A virus A/Egypt/3300-NAMRU3/2008 (H5N1)); assay: HA microarray, BCC supernatant
# [5] = molecular target: recombinant soluble homotrimeric HA of A/Solomon Islands/3/06 (H1N1) (Influenza A virus A/Solomon Islands/3/2006 (H1N1)); assay: HA microarray, BCC supernatant
# [6] = molecular target: recombinant soluble homotrimeric HA of A/Vietnam/1203/04 (H5N1) (Influenza A virus A/Vietnam/1203/2004 (H5N1)); assay: HA microarray, BCC supernatant
# [7] = molecular target: recombinant soluble homotrimeric HA, A/chicken/Vietnam/NCVD-016/08 (H5N1) (influenza A virus A/chicken/Vietnam/NCVD-016/2008 (H5N1)); assay: microarray, trimeric HA, transfection supernatant
# [8] = molecular target: recombinant soluble homotrimeric HA, A/northern shoveler/California/HKWF115/2007 (H6N1) (influenza A virus A/northern shoveler/California/HKWF115/2007 (H6N1)); assay: microarray, trimeric HA, transfection supernatant
# [9] = molecular target: recombinant soluble homotrimeric HA, A/Hong Kong/156/97 (H5N1) (influenza A virus A/Hong Kong/156/97 (H5N1)); assay: microarray, trimeric HA, transfection supernatant
# [10] = molecular target: recombinant soluble homotrimeric HA, A/Anhui/1/05 (H5N1) (influenza A virus A/Anhui/1/2005 (H5N1)); assay: microarray, trimeric HA, transfection supernatant
# [11] = molecular target: T1, recombinant homotrimeric HA, A/swine/Ontario/01911-2/99 H4N6 (Influenza A virus A/swine/Ontario/01911-2/99 (H4N6)); assay: trimeric HA microarray; transfection supernatant set 5
# [12] = molecular target: recombinant homotrimeric HA, A/Egypt/3300-NAMRU3/08 H5N1 (Influenza A virus A/Egypt/3300-NAMRU3/08 (H5N1)); assay: as above
# [13] = molecular target: recombinant soluble homotrimeric HA of A/California/4/09 (H1N1) (Influenza A virus A/California/04/2009 (H1N1)); assay: HA microarray, BCC supernatant
# [14] = molecular target: recombinant soluble homotrimeric HA, A/duck/Yangzhou/02/2005 (H8N4) (influenza A virus A/duck/Yangzhou/02/2005 (H8N4)); assay: microarray, trimeric HA, transfection supernatant
# [15] = molecular target: recombinant homotrimeric HA, A/California/4/09 H1N1 (Influenza A virus A/California/4/09 (H1N1)); assay: trimeric HA microarray; transfection supernatant set 5
# [16] = molecular target: recombinant soluble homotrimeric HA of A/duck/Yangzhou/02/2005 (H8N4) (Influenza A virus A/duck/Yangzhou/02/2005 (H8N4)); assay: HA microarray, BCC supernatant
# [17] = molecular target: recombinant homotrimeric HA, A/Japan/305/57 H2N2 (Influenza A virus A/Japan/305/57 (H2N2)); assay: trimeric HA microarray; transfection supernatant set 5
# [18] = molecular target: recombinant soluble homotrimeric HA of A/Indonesia/5/05 (H5N1) (Influenza A virus A/Indonesia/5/2005 (H5N1)); assay: HA microarray, BCC supernatant
# [19] = molecular target: recombinant soluble homotrimeric HA of A/Anhui/1/05 (H5N1) (Influenza A virus A/Anhui/1/2005 (H5N1)); assay: HA microarray, BCC supernatant
# [20] = molecular target: recombinant homotrimeric HA, A/Wisconsin/67/05 H3N2 (Influenza A virus A/Wisconsin/67/05 (H3N2)); assay: trimeric HA microarray; transfection supernatant set 5
# [21] = molecular target: recombinant soluble homotrimeric HA of A/Netherlands/219/03 (H7N7) (Influenza A virus A/Netherlands/219/03 (H7N7)); assay: HA microarray, BCC supernatant
# [22] = molecular target: recombinant soluble homotrimeric HA of A/swine/Ontario/01911-2/99 (H4N6) (Influenza A virus A/Swine/Ontario/01911-2/99 (H4N6)); assay: HA microarray, BCC supernatant
# [23] = molecular target: recombinant soluble homotrimeric HA, A/Netherlands/219/03 (H7N7) (influenza A virus A/Netherlands/219/03 (H7N7)); assay: microarray, trimeric HA, transfection supernatant
# [24] = molecular target: T2, recombinant homotrimeric HA, A/Solomon Islands/3/06 H1N1 (Influenza A virus A/Solomon Islands/3/06 (H1N1)); assay: trimeric HA microarray; transfection supernatant set 5
# [25] = molecular target: T2, recombinant homotrimeric HA, A/Solomon …; assay: trimeric HA microarray; transfection supernatant set 2
# [26] = molecular target: T1, recombinant homotrimeric HA, …; assay: as above
Binder,Trimeric HA Binding RLU [1] [RLU],Trimeric HA Binding RLU [2] [RLU],Trimeric HA Binding RLU [3] [RLU],Trimeric HA Binding RLU [5] [RLU],Trimeric HA Binding RLU [6] [RLU],Trimeric HA Binding RLU [7] [RLU],Trimeric HA Binding RLU [8] [RLU],Trimeric HA Binding RLU [9] [RLU],Trimeric HA Binding RLU [10] [RLU],Trimeric HA Binding RLU [13] [RLU],Trimeric HA Binding RLU [14] [RLU],Trimeric HA Binding RLU [16] [RLU],further results
"TCN-539 (5056_A08) (antibody, V domains shown) VH: QVQLVESGGGVVQPGRSLRLSCAASEITFITYAMHWVRQAPGKGLEWVALISDDGSNKFYADSVKGRFTISRDNSKNTLYLQMNSLRAEDTAAYYCAREGVYFDSGTYRGYFDYWGQETLVTVSS VL: EIVLTQSPATLSLSPGERATLSCRASQSVSSYLAWYQQKPGQAPRLLIYDASNRATGIPARFSGSGSGTDFTLTISSLEPEDFAVYYCQQRSHWPPITFGQGTRLEIK",715,468,100,239,545,3500,2860,1450,3240,,,,Trimeric HA Binding RLU [4]: 11400 RLU; Trimeric HA Binding: RLU [11]: 6510 RLU; Trimeric HA Binding: RLU [12]: 24300 RLU
"TCN-545 (5082_I15) (antibody, V domains shown) VH: QVQLQQWGAGLLKPSETLSLSCAVFGGSFSDYYWTWIRQPPGKGLEWIGEIKHSGRTNYNPSLESRVTISVDTSKNQFSLKLSSVTAADTAIYYCARGTDPDTEGYCRSGSCSAFDFWGQGTLVTVSS VL: EIVLTQSPGTLSLSPGERATLSCRASHFVNYRSLAWYQQTPGQVPRLLIYGASTRATGIPDRFSGSGSGTDFTLTISRLEPEDFAVYFCQQYGGSPRYTFGQGTRLEIK",575,157,392,,235,3230,,1560,4880,365,13200,,Trimeric HA Binding: RLU [15]: 818 RLU
"TCN-542 (5079_A16) (antibody, V domains shown) VH: QVQLQESGPGLVKPSQTLSLTCTVSGGSISSGNYYWNWVRQHPGKGLEWIGYIYYRGSTFYNPSLKSRVTISIDTSKNQFSLRLSSVTAADTAVYYCAKDTRSSLDNYQYGMDVWGQGTTVTVSS VL: QTVVTQEPSLTVSPGGTVTLTCASSTGAVTSSYFPNWFQQKPGQAPRPLIYSTTIRHSWTPARFSGSLLGGKAALTLSGVQPEDEADYYCLLYSGGDPVAFGGGTKLTVL",,142,,,,5460,2370,786,7410,,11600,332,Trimeric HA Binding: RLU [17]: 5180 RLU
"TCN-551 (5243_D01) (antibody, V domains shown) VH: EVQLVQSGSEVKKPGESLKISCKGSGYSFSNYWIGWVRHMPGKGLEWMGIIYPGDSDTRYSPSFQGQVTMSADKSSSTVYLQWSSLKASDTAIYYCARRGGHSFGYGSGGDTHSEFDSWGQGTLVTVSS VL: QSVLTQSPSVSAAPGQKVTISCSGSDSNIGDYFVCWYQHLPGKPPQLLIYENNKRPSGIPDRFSGSKSGTSATLGITGIQTGDEADYYCATWDGSLSAWVFGGGTKLTVL",6840,22600,,53800,4150,792,,792,,53400,,9820,Trimeric HA Binding RLU [18]: 53500 RLU; Trimeric HA Binding RLU [4]: 47200 RLU; Trimeric HA Binding RLU [19]: 4190 RLU; Trimeric HA Binding: RLU [12]: 17400 RLU; Trimeric HA Binding: RLU [20]: 936 RLU
"TCN-554 (5277_M05) (antibody, V domains shown) VH: QVQLVQSGADLKKPGASVKVSCKASGYTFTDYYIHWVRQAPGQGLEWMGWINPESGDTKYAQKFQGRVTMTRDTSITTAYMELGRLRSDDTAVYYCARDVSTTWSWFAPWGQGTLVTVSS VL: DIVMTQSPDSLAVSLGERATINCRSSQSIFHNSNNENYLAWYQQKPGQPPKLLIYWASTRESGVPDRFSGSGSGTDFTLTISSLQAEDVAVYFCQQYYNAPLTFGGGTKVEIK",46500,328,250,,,2710,,,,,5810,,Trimeric HA Binding RLU [21]: 610 RLU; Trimeric HA Binding RLU [22]: 78 RLU; Trimeric HA Binding RLU [23]: 4520 RLU; Trimeric HA Binding: RLU [11]: 5400 RLU; Trimeric HA Binding: RLU [24]: 992 RLU
"TCN-526 (5084_C17) (antibody, V domains shown) VH: EVLMVESGGGLVQPGGSVRLSCVASGFSFSSHWMTWVRQAPGKGLEWVANIEDDGGDKYYVDSVKGRFIISRDNAKNSVYLQMNSLRAEDTAVYFCARGSGSSDRSDYDPHYYYYLDVWGKGATVTVSS VL: DIQLTQSPSSLSASVGDRVTITCRASQSISRYLNWYQQKPGKAPKLLLFAASTLLDGVPSRFSGSGSGTDFTLTISSLQPEDFATYYCQRNHSPSWTFGQGTRVEIK",49300,246,179,341,,,,,,,,,Trimeric HA Binding: RLU [25]: 1470 RLU
"TCN-547 (5092_F11) (antibody, V domains shown) VH: QVQLQESGPGLVKPSQTLSLTCTVSGDSISSVDHYWSWIRQHPVKGLEWIGFMYYSASTYYNPSLKSRVTISTDTSKNQFSLRLSSVTAADTAVYYCARGTCAGDCSLHYYYYGLDVWGQGRTVTVSS VL: DIQMTQSPSSLSASVGDRVTITCRASQSISSYLNWYQHKPGKAPKVLMYAVSILQSGVPSRFSGSGSGADFTLTISSLQPEDFATYYCQQSYSSPLTFGGGTKVEIK",16900,40,198,155,,1320,2620,,,170,3340,278,Trimeric HA Binding RLU [21]: 401 RLU; Trimeric HA Binding RLU [23]: 2090 RLU; Trimeric HA Binding: RLU [15]: 1470 RLU
"TCN-522 (3212_I12) (antibody, V domains shown) VH: QVQLQQWGAGLLKPSETLSLTCTVSGGSLTDYSWNWIRQPPGKGLEWIGDTLHNGYTNYNPSLRGRVSISIDTSKNQVSLRLTSVTAADTALYYCARGSGGYGGFDYFGKLRTWDFWGQGTLVTVSS VL: DIQLTQSPSSLSASVGDRVTITCRASQGIRNDLGWYQQKPGNAPKRLIFGASSLQSGVPSRFSGSGSGTEFTLTISSLQPEDFATYYCLQHNSYPYTFGQGTKLEIK",302,989,,38900,145,,,,,5020,,,Trimeric HA Binding RLU [18]: 67 RLU; Trimeric HA Binding: RLU [26]: 1050 RLU
